Source: patent US20130230519A1 (published 2013)

Tests used:
mouse serum albumin = molecular target: T1, mouse serum albumin (mouse, UniProt P07724 25-608); experiment: SPR (BIAcore), purified dAb
T1 construct: mature; Bought purified serum protein; also called MSA; mouse SA
Method: (§1) Unique dAbs were expressed as bacterial supernatants in 0.5 L shake flasks in Onex media at 30° C. for 48 hrs at 250 rpm. dAbs were purified from the culture media by absorption to protein L streamline followed by elution with 100 mM glycine pH2.0.

Rat Serum Albumin [1] = molecular target: T2, Rat Serum Albumin (rat, UniProt P02770 25-608); experiment: SPR (BIAcore), purified dAb
T2 construct: mature; Bought purified serum protein; also called RSA; rat SA
Method: as §1

[2] = molecular target: T3, Cynomolgus monkey Serum Albumin (Cynomolgus monkey, UniProt A2V9Z4 25-608); experiment: SPR (BIAcore), purified dAb
T3 construct: mature; Purified in house; also called CSA; cyno serum albumin
Method: as §1

Human Serum Albumin = molecular target: T4, Human Serum Albumin (human, UniProt P02768 25-609); experiment: SPR (BIAcore), purified dAb
T4 construct: mature; Bought purified serum protein; Immobilised on CM5 chips; also called HSA; human SA
Method: as §1

[3] = molecular target: T3, Cynomolgus monkey Serum Albumin; experiment: SPR (BIAcore), purified dAb; second protein batch, second analyst
Method: as §1

Rat Serum Albumin [4] = molecular target: T2, Rat Serum Albumin; experiment: as above
Method: as §1

T4 sequence (P02768 25-609): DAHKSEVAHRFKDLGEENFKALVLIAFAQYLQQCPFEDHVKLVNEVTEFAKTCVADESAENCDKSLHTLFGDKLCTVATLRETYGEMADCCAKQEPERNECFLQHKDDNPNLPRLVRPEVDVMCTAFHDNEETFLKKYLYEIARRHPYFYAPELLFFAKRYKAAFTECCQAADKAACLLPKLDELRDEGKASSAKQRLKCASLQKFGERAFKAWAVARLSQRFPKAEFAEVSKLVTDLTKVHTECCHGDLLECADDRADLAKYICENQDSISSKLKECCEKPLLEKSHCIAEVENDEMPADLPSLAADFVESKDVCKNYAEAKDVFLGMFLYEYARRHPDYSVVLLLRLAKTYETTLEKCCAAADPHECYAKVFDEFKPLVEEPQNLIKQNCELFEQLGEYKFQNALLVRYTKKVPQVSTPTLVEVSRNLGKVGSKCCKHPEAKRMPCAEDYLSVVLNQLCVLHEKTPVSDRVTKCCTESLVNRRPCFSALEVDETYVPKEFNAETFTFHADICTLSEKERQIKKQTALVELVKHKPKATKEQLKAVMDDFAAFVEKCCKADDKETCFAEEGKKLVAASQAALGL
T3 sequence (A2V9Z4 25-608): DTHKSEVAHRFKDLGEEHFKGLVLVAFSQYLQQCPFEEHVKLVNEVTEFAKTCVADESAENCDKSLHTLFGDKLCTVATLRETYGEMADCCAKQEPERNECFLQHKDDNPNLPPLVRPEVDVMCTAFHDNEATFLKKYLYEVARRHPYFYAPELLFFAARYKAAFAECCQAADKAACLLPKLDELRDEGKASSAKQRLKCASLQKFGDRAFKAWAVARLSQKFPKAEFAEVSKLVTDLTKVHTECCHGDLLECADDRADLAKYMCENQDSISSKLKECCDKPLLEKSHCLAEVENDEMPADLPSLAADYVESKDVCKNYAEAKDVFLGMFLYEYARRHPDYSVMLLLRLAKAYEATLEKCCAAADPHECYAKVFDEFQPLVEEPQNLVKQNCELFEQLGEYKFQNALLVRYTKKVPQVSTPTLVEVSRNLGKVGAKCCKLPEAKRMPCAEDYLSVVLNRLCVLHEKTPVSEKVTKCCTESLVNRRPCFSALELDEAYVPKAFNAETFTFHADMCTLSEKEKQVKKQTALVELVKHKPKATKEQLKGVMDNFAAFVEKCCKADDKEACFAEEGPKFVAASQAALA
T2 sequence (P02770 25-608): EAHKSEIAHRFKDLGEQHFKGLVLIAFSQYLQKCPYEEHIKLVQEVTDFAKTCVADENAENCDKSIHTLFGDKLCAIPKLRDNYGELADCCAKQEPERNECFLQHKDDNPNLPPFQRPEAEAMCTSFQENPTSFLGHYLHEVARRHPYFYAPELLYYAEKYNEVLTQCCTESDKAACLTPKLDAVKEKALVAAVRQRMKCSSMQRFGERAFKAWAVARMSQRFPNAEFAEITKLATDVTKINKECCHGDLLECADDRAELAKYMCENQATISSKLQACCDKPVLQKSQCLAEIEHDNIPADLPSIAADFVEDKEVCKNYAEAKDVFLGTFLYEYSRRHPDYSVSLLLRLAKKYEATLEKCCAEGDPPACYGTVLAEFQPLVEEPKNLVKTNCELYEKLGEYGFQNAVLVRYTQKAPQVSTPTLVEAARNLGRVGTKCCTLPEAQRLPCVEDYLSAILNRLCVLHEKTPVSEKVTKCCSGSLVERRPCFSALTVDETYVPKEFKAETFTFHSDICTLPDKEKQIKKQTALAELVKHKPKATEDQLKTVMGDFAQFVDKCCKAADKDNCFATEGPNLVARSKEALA

Row | Binder | Kd (mouse serum albumin) | Kd (Rat Serum Albumin [1]) | Kd [2] | Kd (Human Serum Albumin) | Kd [3] | Kd (Rat Serum Albumin [4])
1 | DOM7h-14-10 (other, Vk dAb (AlbudAb); tag not included here) VL: DIQMTQSPSSLSASVGDRVTITCRASQWIGSQLSWYQQKPGKAPKLLIMWRSSLQSGVPSRFSGSGSGTDFTLTISSLQPEDFATYYCAQGLRHPKTFGQGTKVEIKR | 30.1 nM | 9.4 nM | – | – | – | –
2 | DOM7h-14-120 (other) VL: DIQMTQSPSSLSASVGDRVTITCRASQWIGSQLSWYQQKPGKAPKLLIMWRSSLQSGVPSRFSGSGSGTDFTLTISSLQPEDFATYYCAQGLRHPKTYGQGTKVENKR | – | 2.7 nM | 3.7 nM | 14 nM | – | –
3 | DOM7h-14-100 (other, pDOM5 myc tag not included) VL: DIQMTQSPSSLSASVGDRVTITCRASQWIGSQLSWYQQKPGKAPKLLIMWRSSLQSGVPSRFSGSGSGTDFTLTISSLQPEDFATYYCAQGLRHPKTYGQGTKVENKW | 8 nM | 3.7 nM | 6.4 nM | 4.5 nM | 6.1 nM | 29 nM
4 | DOM7h-14-56 (other, pDOM5 myc tag not included) VL: DIQMTQSPSSLSASVGDRVTITCRASQWIGSQLSWYQQKPGKAPMLLIMWSSSLQSGVPSRFSGSGSGTDFTLTISSLQPEDFATYYCAQGLRHPKTFGQGTKVEIKW | 6.3 nM | 3.4 nM | 18.7 nM | 11.1 nM | – | –
5 | DOM7h-14-74 (other, pDOM5 myc tag not included) VL: DIQMTQSPSSLSASVGDRVTITCRASQWIGSQLSWYQQKPGKAPKLLIMWRSSLQSGVPSRFSGSGSGTDFTLTISSLQPEDFATYYCAQGLRHPKTYGKGTKVENKW | 23.5 nM | 4.3 nM | 6.3 nM | 4.8 nM | 2.7 nM | 11.6 nM
6 | DOM7h-14-82 (other, pDOM5 myc tag not included) VL: DIQMTQSPSSLSASVGDRVTITCRASQWIGSQLSWYQQKPGKAPKLLIMWRSSLQSGVPSRFSGSGSGTDFTLTISSLQPEDFATYYCAQGMRHPKTFGQGTKVEIKW | 32.3 nM | 11.8 nM | 170 nM | 15.4 nM | – | –
7 | DOM7h-14-76 (other, pDOM5 myc tag not included) VL: DIQMTQSPSSLSASVGDRVTITCRASQWIGSQLSWYQQKPGKAPKLLIMWRSSLQSGVPSRFSGSGSGTDFTLTISSLQPEDFATYYCAQGLKHPKTYGQGTKVEIKW | 11.5 nM | 4.7 nM | 19.9 nM | 6.3 nM | – | –
8 | DOM7h-14-109 (other, pDOM5 myc tag not included) VL: DIQMTQSPSSLFASVGDRVTITCRASQWIGSQLSWYQQKPGKAPKLLIMWRSSLQSGVPSRFSGSGSGTDFTLTISSLQPEDFATYYCAQGLRKPKTFGQGTKVKIKW | 58.1 nM | 15.4 nM | 17.6 nM | 108 nM | – | –
9 | DOM7h-14-65 (other, pDOM5 myc tag not included) VL: DIQMTQSPSSLSASVGDRVTITCRASQWIGSQLSWYQQKPGKAPKLLIMWRSALQSGVPSRFSGSGSGTDFTLTISSLQPEDFATYYCAQGLRHPKTFGQGTKVEIKW | 15.3 nM | – | – | – | 16 nM | 25 nM
10 | DOM7h-14-122 (other) VL: DIQMTQSPSSLSASVGDRVTITCRASQWIGSQLSWYQQKPGKAPKLLIMWRSSLQSGVPSRFSGSGSGTDFTLTISSLQPEDFATYYCAQGLRHPKTYGKGTKVEIKR | – | 7.8 nM | – | – | – | –
11 | DOM7h-14-123 (other) VL: DIQMTQSPSSLSASVGDRVTITCRASQWIGSQLSWYQQKPGKAPKLLIMWRSSLQSGVPSRFSGSGSGTDFTLTISSLQPEDFATYYCAQGLRHPKTYGKGTKVENKR | – | 5.1 nM | 8 nM | 12 nM | – | –
12 | DOM7h-14-115 (other, pDOM5 myc tag not included) VL: DIQMTQSPSSLSASVGDRVTITCRASQWIGSQLSWYQQKPGKAPKLLIMWRSALQSGVPSRFSGSGSGTDFTLTISSLQPEDFATYYCAQGLRHPKTYGQGTKVEIKW | 9.8 nM | – | – | – | – | –
13 | DOM7h-14-119 (other) VL: DIQMTQSPSSLSASVGDRVTITCRASQWIGSQLSWYQQKPGKAPKLLIMWRSSLQSGVPSRFSGSGSGTDFTLTISSLQPEDFATYYCAQGLRHPKTYGQGTKVEIKR | – | 6.2 nM | – | – | – | –
14 | DOM7h-14-116 (other, pDOM5 myc tag not included) VL: DIQMTQSPSSLSASVGDRVTITCRASQWIGSQLSWYQQKPGKAPKLLIMWRSALQSGVPSRFSGSGSGTDFTLTISSLQPEDFATYYCAQGLRYPKTFGQGTKVEIKW | 19.1 nM | 8.5 nM | 22.8 nM | 7 nM | – | –
15 | DOM7h-14-101 (other, pDOM5 myc tag not included) VL: DIQMTQSPSSLSASVGDRVTITCRASQWIGSQLSWYQQKPGKAPKLLIMWRSALQNGVPSRFSGSGSGTDFTLTISSLQPEDFATYYCAQGLRHPKTFGQGTKVEIKW | 16.8 nM | 5.8 nM | 11.6 nM | 8.4 nM | – | –
